Assay results published in IntAct's records for PubMed 18570893.

Target: call3_human CALML3 (UniProt P27482)
Sequence (P27482 whole entry): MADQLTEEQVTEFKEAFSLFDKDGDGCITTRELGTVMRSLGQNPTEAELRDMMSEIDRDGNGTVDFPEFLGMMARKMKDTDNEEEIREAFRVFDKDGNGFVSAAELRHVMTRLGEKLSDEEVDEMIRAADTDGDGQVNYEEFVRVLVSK

## Unconventional myosin-X (Homo sapiens), Q9HD67 F795A
  effect of a mutation on the interaction: disrupting interaction
